# Literature values, collected in paper PMC8035318.
# Target: Polκ RIR (Homo sapiens) (UniProt Q9UBT6)
# Test: SPR
substance,measurement,value
Rev1 CT (from UniProt Q9UBZ9),Kd,1700 nM
